B1: Synaptic vesicle glycoprotein 2C (Homo sapiens), Q496J9 (parent)
chain: MEDSYKDRTSLMKGAKDIAREVKKQTVKKVNQAVDRAQDEYTQRSYSRFQDEEDDDDYYPAGETYNGEANDDEGSSEATEGHDEDDEIYEGEYQGIPSMNQAKDSIVSVGQPKGDEYKDRRELESERRADEEELAQQYELIIQECGHGRFQWALFFVLGMALMADGVEVFVVGFVLPSAETDLCIPNSGSGWLGSIVYLGMMVGAFFWGGLADKVGRKQSLLICMSVNGFFAFLSSFVQGYGFFLFCRLLSGFGIGGAIPTVFSYFAEVLAREKRGEHLSWLCMFWMIGGIYASAMAWAIIPHYGWSFSMGSAYQFHSWRVFVIVCALPCVSSVVALTFMPESPRFLLEVGKHDEAWMILKLIHDTNMRARGQPEKVFTVNKIKTPKQIDELIEIESDTGTWYRRCFVRIRTELYGIWLTFMRCFNYPVRDNTIKLTIVWFTLSFGYYGLSVWFPDVIKPLQSDEYALLTRNVERDKYANFTINFTMENQIHTGMEYDNGRFIGVKFKSVTFKDSVFKSCTFEDVTSVNTYFKNCTFIDTVFDNTDFEPYKFIDSEFKNCSFFHNKTGCQITFDDDYSAYWIYFVNFLGTLAVLPGNIVSALLMDRIGRLTMLGGSMVLSGISCFFLWFGTSESMMIGMLCLYNGLTISAWNSLDVVTVELYPTDRRATGFGFLNALCKAAAVLGNLIFGSLVSITKSIPILLASTVLVCGGLVGLCLPDTRTQVLM

Variants of: B1
Settings: with bxa1_clobo botA
In the case of F563A, the “effect of a mutation on the interaction” value is reported as “disrupting interaction strength”.

— IntAct's records for PubMed 24240280
